Measured values taken from the supplement of paper PMC9112550, “Optimization of the antimicrobial peptide Bac7 by deep mutational scanning” (BMC Biology, 2022).

tested on: Escherichia coli TOP10; experiment: shrunken log2 fold change of peptide-encoding DNA abundance (4.5 h post-induction vs induction); higher = less antimicrobial activity (less host growth inhibition); details: time post-induction: 4.5 h; library: site-saturation at positions 5, 18, 19, 20
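Further: peptides expressed intracellularly from a pBAD plasmid library in pooled LB shake-flask culture, induced with 0.3% L-arabinose, DNA abundance read by NGS, three biological replicates, DESeq2 with apeglm shrinkage.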

RRIRPRPPRLPRPRPRPMQGPRP and RRIRTRPPRLPRPRPRPAKKPRP are within 0.2 log units of each other in “shrunken log2 fold change” value: -0.146 for the first, 0.00555 for the second.

Going from RRIRDRPPRLPRPRPRPKIRPRP to RRIRGRPPRLPRPRPRPRSGPRP, the “shrunken log2 fold change” value rises from -0.0266 to 0.83.

First: RRIRGRPPRLPRPRPRPWTAPRP
Second: RRIRARPPRLPRPRPRPTGCPRP
The “shrunken log2 fold change” value of the first is lower: 0.172 for the first, 0.458 for the second.

Going from RRIRPRPPRLPRPRPRPPTHPRP to RRIRYRPPRLPRPRPRPQIAPRP, the “shrunken log2 fold change” value falls from 0.317 to -0.242.

RRIRWRPPRLPRPRPRPKEYPRP and RRIRHRPPRLPRPRPRPMIYPRP are within 0.2 log units of each other in “shrunken log2 fold change” value: 0.02 for the first, -0.105 for the second.

Compared with RRIRGRPPRLPRPRPRPHGAPRP, RRIRNRPPRLPRPRPRPDANPRP is lower in “shrunken log2 fold change” value: -0.00969 for the first, -0.318 for the second.

RRIRCRPPRLPRPRPRPWPKPRP and RRIRYRPPRLPRPRPRPDGDPRP are within 0.2 log units of each other in “shrunken log2 fold change” value: 0.0772 for the first, 0.00902 for the second.

RRIRQRPPRLPRPRPRPYIYPRP and RRIRPRPPRLPRPRPRPWGDPRP are within 0.2 log units of each other in “shrunken log2 fold change” value: -0.0737 for the first, -0.0121 for the second.

RRIRVRPPRLPRPRPRPVVSPRP and RRIRARPPRLPRPRPRPVMHPRP are within 0.2 log units of each other in “shrunken log2 fold change” value: 0.0132 for the first, 0.191 for the second.

First: RRIRIRPPRLPRPRPRPFCYPRP
Second: RRIRQRPPRLPRPRPRPQEHPRP
The “shrunken log2 fold change” value of the first is higher: -0.514 for the first, -0.942 for the second.

Going from RRIRFRPPRLPRPRPRPKSFPRP to RRIRLRPPRLPRPRPRPHSCPRP, the “shrunken log2 fold change” value falls from -0.0388 to -0.884.

First: RRIRPRPPRLPRPRPRPQFYPRP
Second: RRIRCRPPRLPRPRPRPQMAPRP
The “shrunken log2 fold change” value of the first is lower: -0.592 for the first, -0.117 for the second.

RRIRSRPPRLPRPRPRPLLEPRP and RRIRYRPPRLPRPRPRPAVLPRP are within 0.2 log units of each other in “shrunken log2 fold change” value: 0.243 for the first, 0.0447 for the second.

RRIRVRPPRLPRPRPRPCSAPRP and RRIRPRPPRLPRPRPRPKCHPRP are within 0.2 log units of each other in “shrunken log2 fold change” value: 0.0399 for the first, 0.0622 for the second.

RRIRVRPPRLPRPRPRPRFNPRP and RRIRNRPPRLPRPRPRPIHCPRP are within 0.2 log units of each other in “shrunken log2 fold change” value: -0.264 for the first, -0.244 for the second.

RRIRARPPRLPRPRPRPNQQPRP and RRIRARPPRLPRPRPRPLLVPRP are the same in “shrunken log2 fold change” value: 0.284 for the first, 0.284 for the second.

Compared with RRIRARPPRLPRPRPRPFTLPRP, RRIRVRPPRLPRPRPRPNFYPRP is higher in “shrunken log2 fold change” value: -0.543 for the first, -0.146 for the second.

RRIRLRPPRLPRPRPRPVFTPRP and RRIRQRPPRLPRPRPRPTFCPRP are within 0.2 log units of each other in “shrunken log2 fold change” value: -0.135 for the first, -0.0744 for the second.

First: RRIRNRPPRLPRPRPRPEGKPRP
Second: RRIRTRPPRLPRPRPRPCKVPRP
The “shrunken log2 fold change” value of the first is higher: -0.0135 for the first, -0.233 for the second.

First: RRIRQRPPRLPRPRPRPLRDPRP
Second: RRIRNRPPRLPRPRPRPFPNPRP
The “shrunken log2 fold change” value of the first is higher: 0.082 for the first, -0.33 for the second.

First: RRIRWRPPRLPRPRPRPMEHPRP
Second: RRIRTRPPRLPRPRPRPRRPPRP
The “shrunken log2 fold change” value of the first is lower: 0.107 for the first, 0.493 for the second.

RRIRYRPPRLPRPRPRPVQEPRP and RRIRVRPPRLPRPRPRPLMHPRP are within 0.2 log units of each other in “shrunken log2 fold change” value: -0.149 for the first, -0.249 for the second.

Compared with RRIRKRPPRLPRPRPRPKSTPRP, RRIRHRPPRLPRPRPRPDNIPRP is lower in “shrunken log2 fold change” value: 0.0348 for the first, -0.207 for the second.

Compared with RRIRIRPPRLPRPRPRPDDGPRP, RRIRTRPPRLPRPRPRPRTCPRP is higher in “shrunken log2 fold change” value: -0.184 for the first, 1.21 for the second.

First: RRIRRRPPRLPRPRPRPGLNPRP
Second: RRIRHRPPRLPRPRPRPHFTPRP
The “shrunken log2 fold change” value of the first is higher: -0.0395 for the first, -0.67 for the second.

First: RRIRPRPPRLPRPRPRPNSEPRP
Second: RRIRERPPRLPRPRPRPHGRPRP
The “shrunken log2 fold change” value of the first is lower: -0.211 for the first, 0.0279 for the second.

RRIRERPPRLPRPRPRPVPTPRP and RRIRHRPPRLPRPRPRPDRAPRP are within 0.2 log units of each other in “shrunken log2 fold change” value: 0.116 for the first, 0.217 for the second.

RRIRRRPPRLPRPRPRPDKDPRP and RRIRHRPPRLPRPRPRPPVWPRP are within 0.2 log units of each other in “shrunken log2 fold change” value: 0.00839 for the first, 0.156 for the second.

Compared with RRIRHRPPRLPRPRPRPNFFPRP, RRIRYRPPRLPRPRPRPCCAPRP is lower in “shrunken log2 fold change” value: 0.307 for the first, -0.437 for the second.

First: RRIRLRPPRLPRPRPRPWGMPRP
Second: RRIRLRPPRLPRPRPRPMGKPRP
The “shrunken log2 fold change” value of the first is higher: -0.0457 for the first, -0.353 for the second.

RRIRSRPPRLPRPRPRPTQHPRP and RRIRCRPPRLPRPRPRPEVVPRP are within 0.2 log units of each other in “shrunken log2 fold change” value: 0.376 for the first, 0.332 for the second.

RRIRLRPPRLPRPRPRPGCPPRP and RRIRQRPPRLPRPRPRPFELPRP are within 0.2 log units of each other in “shrunken log2 fold change” value: 0.0643 for the first, -0.113 for the second.

First: RRIRIRPPRLPRPRPRPAEDPRP
Second: RRIRDRPPRLPRPRPRPDCWPRP
The “shrunken log2 fold change” value of the first is lower: -0.0521 for the first, 1.65 for the second.

RRIRGRPPRLPRPRPRPQDIPRP and RRIRWRPPRLPRPRPRPLGIPRP are within 0.2 log units of each other in “shrunken log2 fold change” value: -0.398 for the first, -0.242 for the second.

RRIRYRPPRLPRPRPRPYQVPRP and RRIRNRPPRLPRPRPRPMWHPRP are within 0.2 log units of each other in “shrunken log2 fold change” value: -0.289 for the first, -0.404 for the second.

RRIRWRPPRLPRPRPRPKCDPRP and RRIRSRPPRLPRPRPRPTGFPRP are within 0.2 log units of each other in “shrunken log2 fold change” value: 0.033 for the first, -0.0473 for the second.

RRIRTRPPRLPRPRPRPILGPRP and RRIRFRPPRLPRPRPRPWRSPRP are within 0.2 log units of each other in “shrunken log2 fold change” value: 0.0438 for the first, -0.0939 for the second.

RRIRNRPPRLPRPRPRPIFYPRP and RRIRNRPPRLPRPRPRPGISPRP are within 0.2 log units of each other in “shrunken log2 fold change” value: 0.00954 for the first, 0.0154 for the second.

Going from RRIRHRPPRLPRPRPRPCDMPRP to RRIRERPPRLPRPRPRPADIPRP, the “shrunken log2 fold change” value rises from -0.302 to 0.033.

Going from RRIRDRPPRLPRPRPRPWSVPRP to RRIRPRPPRLPRPRPRPFIVPRP, the “shrunken log2 fold change” value falls from 0.0902 to -0.257.

First: RRIRFRPPRLPRPRPRPLTCPRP
Second: RRIRVRPPRLPRPRPRPPHSPRP
The “shrunken log2 fold change” value of the first is lower: -0.182 for the first, 0.108 for the second.

First: RRIRVRPPRLPRPRPRPRNLPRP
Second: RRIRNRPPRLPRPRPRPYGCPRP
The “shrunken log2 fold change” value of the first is higher: 0.107 for the first, -0.146 for the second.

Compared with RRIRARPPRLPRPRPRPIDLPRP, RRIRKRPPRLPRPRPRPNKFPRP is lower in “shrunken log2 fold change” value: 0.289 for the first, -0.0338 for the second.

RRIRQRPPRLPRPRPRPTKTPRP and RRIRTRPPRLPRPRPRPTEGPRP are within 0.2 log units of each other in “shrunken log2 fold change” value: 0.298 for the first, 0.1 for the second.

Compared with RRIRSRPPRLPRPRPRPIAQPRP, RRIRARPPRLPRPRPRPPETPRP is higher in “shrunken log2 fold change” value: -0.0267 for the first, 0.55 for the second.

RRIRERPPRLPRPRPRPPCWPRP and RRIRHRPPRLPRPRPRPVENPRP are within 0.2 log units of each other in “shrunken log2 fold change” value: 0.0636 for the first, -0.0355 for the second.

RRIRYRPPRLPRPRPRPNRWPRP and RRIRWRPPRLPRPRPRPAMCPRP are within 0.2 log units of each other in “shrunken log2 fold change” value: 0.135 for the first, 0.0884 for the second.

Going from RRIRCRPPRLPRPRPRPMNEPRP to RRIRSRPPRLPRPRPRPNNKPRP, the “shrunken log2 fold change” value falls from -0.307 to -0.559.

RRIRKRPPRLPRPRPRPTKQPRP and RRIRKRPPRLPRPRPRPLKYPRP are within 0.2 log units of each other in “shrunken log2 fold change” value: -0.0553 for the first, 0.072 for the second.

RRIRQRPPRLPRPRPRPRNWPRP and RRIRFRPPRLPRPRPRPVNIPRP are within 0.2 log units of each other in “shrunken log2 fold change” value: -0.0692 for the first, -0.16 for the second.

Compared with RRIRWRPPRLPRPRPRPWCPPRP, RRIRMRPPRLPRPRPRPHRTPRP is lower in “shrunken log2 fold change” value: 0.0505 for the first, -0.177 for the second.

RRIRFRPPRLPRPRPRPQEFPRP and RRIRERPPRLPRPRPRPMFWPRP are within 0.2 log units of each other in “shrunken log2 fold change” value: 0.0412 for the first, 0.0831 for the second.

RRIRQRPPRLPRPRPRPKYSPRP and RRIRNRPPRLPRPRPRPEQWPRP are within 0.2 log units of each other in “shrunken log2 fold change” value: -0.0125 for the first, -0.0114 for the second.

RRIRVRPPRLPRPRPRPWTNPRP and RRIRRRPPRLPRPRPRPFNRPRP are within 0.2 log units of each other in “shrunken log2 fold change” value: -0.584 for the first, -0.557 for the second.

Compared with RRIRTRPPRLPRPRPRPAVKPRP, RRIRKRPPRLPRPRPRPTQVPRP is higher in “shrunken log2 fold change” value: 0.106 for the first, 0.312 for the second.

RRIRNRPPRLPRPRPRPDERPRP and RRIRTRPPRLPRPRPRPSGRPRP are within 0.2 log units of each other in “shrunken log2 fold change” value: 0.0408 for the first, 0.0348 for the second.

RRIRLRPPRLPRPRPRPQNCPRP and RRIRLRPPRLPRPRPRPTYLPRP are within 0.2 log units of each other in “shrunken log2 fold change” value: 0.0117 for the first, -0.0138 for the second.

Going from RRIRFRPPRLPRPRPRPHWQPRP to RRIRWRPPRLPRPRPRPAKSPRP, the “shrunken log2 fold change” value rises from -0.119 to 0.228.

RRIRCRPPRLPRPRPRPVFWPRP and RRIRERPPRLPRPRPRPGGRPRP are within 0.2 log units of each other in “shrunken log2 fold change” value: 0.138 for the first, 0.27 for the second.

Compared with RRIRVRPPRLPRPRPRPDTMPRP, RRIRTRPPRLPRPRPRPPRLPRP is higher in “shrunken log2 fold change” value: -0.177 for the first, 0.343 for the second.

Compared with RRIRGRPPRLPRPRPRPETTPRP, RRIRQRPPRLPRPRPRPEIPPRP is lower in “shrunken log2 fold change” value: 2.32 for the first, -0.0704 for the second.

First: RRIRGRPPRLPRPRPRPMAMPRP
Second: RRIRRRPPRLPRPRPRPQGYPRP
The “shrunken log2 fold change” value of the first is higher: 0.138 for the first, -0.0842 for the second.

With RRIRQRPPRLPRPRPRPYTSPRP the “shrunken log2 fold change” value was -0.0321.
